From patent publication US20160251436A1 (PD 1 ACQUISITION GROUP, published 2016)
Substitutions are numbered along the chain they refer to.

T1: recombinant soluble extracellular domain (ECD) of ICOS (inducible T-cell costimulator) (R&D Systems) (UniProt Q9Y6W8 21-140, limits assumed)
T1 construct: extracellular domain
T1 sequence (looked up): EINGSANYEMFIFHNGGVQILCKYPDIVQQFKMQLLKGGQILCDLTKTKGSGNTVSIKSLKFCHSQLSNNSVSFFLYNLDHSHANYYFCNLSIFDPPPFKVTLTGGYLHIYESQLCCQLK

B1: mouse anti-PD-1 cl. EH12.2H7 (antibody, from another filing, V domains shown)
VH: QVQLQQSGAELAKPGASVQMSCKASGYSFTSSWIHWVKQRPGQGLEWIGYIYPSTGFTEYNQKFKDKATLTADKSSSTAYMQLSSLTSEDSAVYYCARWRDSSGYHAMDYWGQGTSVTVSS
VL: DIVLTQSPASLTVSLGQRATISCRASQSVSTSGYSYMHWYQQKPGQPPKLLIKFGSNLESGIPARFSGSGSGTDFTLNIHPVEEEDTATYYCQHSWEIPYTFGGGTKLEIK
B2: 100388_D4VH3_100389_D4VK5 (antibody, V domains shown)
VH: EVQLQESGAELVRPGASVTLSCKASGYTFTDYEMHWVKQTPVHGLEWIGVIDPGTGGTAYNQKFKVKALLTADKSSNTAYMELRSLTSEDSAVYYCTSEKFGSNYYFDYWGQGTTLTVSS
VL: DIVITQTPLSLPVSLGDQASISCRSSQTIVHSDGNTYLEWYLQKPGQSPKLLIYKVSNRFSGVPDRFSGSGSGTDFTLKISRVEAEDLGVYYCFQGSHVPLTFGAGTKLEIK
notes: Mouse variable regions; cloned into pFUSE-CHIg-mG1 (murine IgG1 Fc), expressed in HEK293
B3: 100413_E1VH9_100414_E1VK5 (antibody, V domains shown)
VH: EVQLQESGPSLVQPSQSLSITCTVSGFSLTSYGVHWVRQSPGKGLEWLGVIWRGGNTDYNAAFMSRLSITKDNSKSQVFFKMNSLQADDTAIYYCAASMIGGYWGQGTTLTVSS
VL: B2 VL with I4L, T28S, D33N, D75N, I111L
notes: as for B2
B4: 100246_A10VH1_100247_A10VK3 (antibody, V domains shown)
VH: EVQLQESGPGLVKPSQSLSLTCTVTGYSITSDYAWNWIRQFPGNKLEWMGYITYSGSPTYNPSLKSQFSITRDTSKNQFFLQLNSLTTEDTATYYCARGLGGHYFDYWGQGTTLTVSS
VL: DIVLTQSPDTLSVTPGDRVSLSCRASQSISDYLHWYQQKSHESPRLLIKYASQSISGIPSRFSGSGSGSDFTLSINSVEPEDVGVYYCQNGHSYPYTFGGGTKLELK
notes: as for B2
B5: 100244_C8VH3_100245_C8VK5 (antibody, V domains shown)
VH: EVQLQESGPELVRPGASVKMSCKASGYTFTSYWMHWVKQRPGQGLEWIGMIDPSNSETSLNQKFKDKATLNVDKSTNTAYMQLSSLTSEDSAVYYCARSRGNYAYEMDYWGQGTSVTVSS
VL: DIVITQTTAIMSASPGEKVTLTCSASSSVSSNYLYWYQQRPGSSPKLWIYSTSNLASGVPARFSGSGSGTSYSLTISSMEAEDAASYFCHQWSSYPPTFGSGTKLEIK
notes: as for B2
B6: 388D4-2 (100388_D4_HC3 + 100389_D4_LC3) (antibody, V domains shown)
VH: EVQLVQSGAEVKKPGASVKVSCKASGYTFTDYEMHWVRQAPGQRLEWMGVIDPGTGGTAYNQKFQGRVTITADKSASTAYMELSSLRSEDTAVYYCTSEKFGSNYYFDYWGQGTLVTVSS
VL: DIVMTQTPLSSPVTLGQPASISCRSSQTIVHSDGNTYLEWYQQRPGQPPRLLIYKVSNRFSGVPDRFSGSGAGTDFTLKISRVEAEDVGVYYCFQGSHVPLTFGQGTKLEIK
B7: 388D4-3 (100388_D4_HC1 + 100389_D4_LC3) (antibody, V domains shown)
VH: B6 VH with R44G, V50I, I70M, A76T, A79V
VL: B6 VL
B8: 244C8-1 (100244_C8_HC1 + 100245_C8_LC1) (antibody, V domains shown)
VH: QVQLVQSGAEVKKPGASVKVSCKASGYTFTSYWMHWVRQAPGQGLEWMGMIDPSNSETSLNQKFQGRVTMTVDKSTNTVYMELSSLRSEDTAVYYCARSRGNYAYEMDYWGQGTLVTVSS
VL: EIVLTQSPATLSLSPGERATLSCRASSSVSSNYLYWYQQKPGQAPRLLIYSTSNRATGIPARFSGSGSGTDYTLTISSLEPEDFAVYYCHQWSSYPPTFGQGTKLEIK
B9: 244C8-2 (100244_C8_HC1 + 100245_C8_LC3) (antibody, V domains shown)
VH: B8 VH
VL: B8 VL with E1D, A9G, R18K, A19V, L48V, R55L, A61D, S78R, Y88F, L105V
B10: 244C8-3 (100244_C8_HC2 + 100245_C8_LC1) (antibody, V domains shown)
VH: B8 VH with Q1E, M70L, T71N, V79A
VL: B8 VL

Columns and labels:
[1] = biological target: human Programmed Death-1 (PD-1) expressed on the cell surface (human) (UniProt Q15116); test: flow cytometry blocking assay: HEK293 cells expressing PD-1 incubated with 10 µg/ml isotype control, washed, stained with PD-L1-Ig Alexa-488; negative control of blocking
Chain of human Programmed Death-1 (PD-1) expressed on the cell surface (human) (Q15116 25-288): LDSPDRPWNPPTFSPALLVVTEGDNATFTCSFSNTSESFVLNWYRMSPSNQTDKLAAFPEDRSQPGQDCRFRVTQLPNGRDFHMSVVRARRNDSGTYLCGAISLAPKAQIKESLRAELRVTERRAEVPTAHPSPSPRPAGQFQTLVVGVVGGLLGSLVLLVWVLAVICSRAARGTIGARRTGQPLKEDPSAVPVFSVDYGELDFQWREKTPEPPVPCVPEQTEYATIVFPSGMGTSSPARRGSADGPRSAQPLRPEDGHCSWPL

[2] = biological target: human Programmed Death-1 (PD-1) expressed on the cell surface (human) (UniProt Q15116); test: cell-based or functional assay
[3] = biological target: human Programmed Death-1 (PD-1) expressed on the cell surface (human) (UniProt Q15116); test: flow cytometry blocking assay: HEK293 cells expressing PD-1 incubated with 10 µg/ml antibody, washed, stained with PD-L1-Ig Alexa-488 as the blocked ligand
[4] = biological target: recombinant soluble extracellular domain (ECD) of PD-1 (R&D Systems) (UniProt Q15116); test: ELISA, PD-1 ECD coated on the plate, antibody titrated from about 0.003 to about 13 nM, OD 450 nm
Chain of recombinant soluble extracellular domain (ECD) of PD-1 (R&D Systems) (UniProt Q15116) (Q15116 25-170): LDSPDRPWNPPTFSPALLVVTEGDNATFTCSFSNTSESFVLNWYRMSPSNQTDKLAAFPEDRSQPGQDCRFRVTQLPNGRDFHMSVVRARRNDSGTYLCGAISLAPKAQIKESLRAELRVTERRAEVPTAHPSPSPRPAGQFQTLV

[5] = biological target: T2, recombinant soluble extracellular domain (ECD) of PD-1 (R&D Systems) (UniProt Q15116 25-170); test: as above
T2 construct: extracellular domain; also called PD-1 ECD
T2 sequence (Q15116 25-170): as above
Method: (§1) To assess selectivity of the anti-PD-1 antibodies, ELISA was used to generate dose response curves for binding of the anti-PD-1 antibodies to several immunomodulatory cell surface proteins. Recombinant soluble extracellular domains (ECDs) of ICOS (inducible T-cell costimulator), PD-1, CD28 or CTLA4 (R&D Systems, Minneapolis, Minn.) were coated onto ELISA assay plates. Binding of each anti-PD-1 antibody and each control antibody to each target protein was then assessed over a range of antibody concentrations (FIGS. 9A-9D).

[6] = biological target: T3, recombinant soluble extracellular domain (ECD) of CTLA4 (R&D Systems) (UniProt P16410 36-161, limits assumed); test: ELISA, CTLA4 ECD coated on the plate, OD 450 nm; anti-CTLA4 as positive control
T3 construct: extracellular domain
T3 sequence (P16410 36-161 limits assumed): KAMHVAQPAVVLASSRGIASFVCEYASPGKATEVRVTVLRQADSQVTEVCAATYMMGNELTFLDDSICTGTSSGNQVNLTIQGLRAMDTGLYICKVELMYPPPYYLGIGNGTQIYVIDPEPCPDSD
Method: as §1

[7] = biological target: T1, recombinant soluble extracellular …; test: ELISA, ICOS ECD coated on the plate, OD 450 nm; anti-ICOS as positive control
Method: as §1

[8] = biological target: T4, human Programmed Death-1 (PD-1) expressed on the cell surface (human, UniProt Q15116 25-288); test: cell-based or functional assay
T4 sequence (Q15116 25-288): as the sequence (Q15116 25-288) above

[9] = biological target: T5, soluble extracellular domain of human PD-1 (human, UniProt Q15116 25-170); test: BLI (ForteBio Octet Red), antibody on the biosensor, soluble PD-1 ECD as analyte
T5 construct: extracellular domain
T5 sequence (Q15116 25-170): as the sequence (Q15116 25-170) above
Method: Biophysical characteristics of certain anti-PD-1 antibodies were analyzed by biolayer interferometry (BLI), using the ForteBio Octet Red system (Pall Corporation, Menlo Park, Calif.). The antibodies were immobilized on BLI biosensors and then incubated with the soluble extracellular domain of human PD-1. Using standard biophysics methods, apparent on-rates and off-rates were then inferred for PD-1 with anti-PD-1 antibodies.

[10] = biological target: T6, recombinant soluble extracellular domain (ECD) of CD28 (R&D Systems) (UniProt P10747 19-152, limits assumed); test: ELISA, CD28 ECD coated on the plate, OD 450 nm; anti-CD28 as positive control
T6 construct: extracellular domain
Method: as §1

[11] = biological target: T4, human Programmed Death-1 (PD-1) …; test: cell-based or functional assay; remark: listed apart in the source
[12] = biological target: T4, human Programmed Death-1 (PD-1) …; test: cell-based or functional assay; remark: listed apart in the source
[13] = biological target: T4, human Programmed Death-1 (PD-1) …; test: cell-based or functional assay; remark: listed apart in the source

Molecule	EC50 (read off the curve) [5] [pM]	binding result [6]	binding result [7]	CD4 IFNγ % positive [8] [% positive]	CD8 IFNγ % positive [8] [% positive]	CD8 TNFα % positive [8] [% positive]	Kd [9] [pM]	koff [9] [s⁻¹]	kon [9] [M⁻¹ s⁻¹]	binding result [10]	Fold Induction IFN-γ (relative to isotype control; NSCLC biopsy cells, 20 µg/mL) [11] [fold]	other results
isotype control mouse IgG1 (antibody)	–	–	–	–	–	–	–	–	–	–	–	percent of cells in gate Alexa Fluor 488-A+ (PD-L1-Ig staining after the antibody) [1]: 37.6%; percent of cells in gate Alexa Fluor 488-A- (PD-L1-Ig staining after the antibody) [1]: 62.4%
B1	–	–	–	–	–	–	–	–	–	–	–	CD4 IFNγ % positive [2]: 12.8 % positive; CD8 IFNγ % positive [2]: 19.5 % positive; CD8 TNFα % positive [2]: 14.1 % positive; percent of cells in gate Alexa Fluor 488-A+ (PD-L1-Ig staining after the antibody) [3]: 10.3%; percent of cells in gate Alexa Fluor 488-A- (PD-L1-Ig staining after the antibody) [3]: 89.7%; EC50 (read off the curve) [4]: 20 pM
B2	~50	no binding (tested: about 13 nM)	no binding (tested: about 13 nM)	21.2	31.2	8.56	2690	0.000999	371000	no binding (tested: about 13 nM)	–	–
B3	~60	no binding (tested: about 13 nM)	no binding (tested: about 13 nM)	20.2	27	11.1	58900	0.0299	507000	no binding (tested: about 13 nM)	–	–
B4	~40	no binding (tested: about 13 nM)	no binding (tested: about 13 nM)	20.3	26.2	14.9	76400	0.0123	161000	no binding (tested: about 13 nM)	–	–
B5	~30	no binding (tested: about 13 nM)	no binding (tested: about 13 nM)	9.64	19.9	14.5	15100	0.00322	213000	no binding (tested: about 13 nM)	–	–
B6	–	–	–	–	–	–	–	–	–	–	7.58	Fold Induction IFN-γ (relative to anti-CD3 + anti-CD28 only; antibody at 5 ug/mL) [12]: 2.06 fold; Fold Induction IFN-γ (relative to anti-CD3 + anti-CD28 only; antibody at 10 ug/mL) [12]: 1.82 fold
B7	–	–	–	–	–	–	–	–	–	–	7.2	–
B8	–	–	–	–	–	–	–	–	–	–	8.04	–
B9	–	–	–	–	–	–	–	–	–	–	7.76	Fold Induction IFN-γ (normalized to nivolumab; 20 µg/mL total antibody) [13]: 1.77 fold; Fold Induction IFN-γ (relative to anti-CD3 + anti-CD28 only; antibody at 5 ug/mL) [12]: 2.66 fold; Fold Induction IFN-γ (relative to anti-CD3 + anti-CD28 only; antibody at 10 ug/mL) [12]: 2.81 fold
B10	–	–	–	–	–	–	–	–	–	–	7.79	–
